Data on five molecules can be found in patent US7943337B2, “Method for screening a protease” (Asahi Kasei Pharma Corporation, priority 2003, dated 2011).

Common to all, as to format: biochemical
Experiment [1] can be described thus: Screening of protease for hemoglobin A1c determination (pH 3.5). The note with it: pH 3.5, 37° C. 60 minutes; 550 nm, reference 595 nm; FOD923 developing solution. The protocol:
(§1) A screening method is shown in which a protease that cleaves a glycated peptide from N-terminal-glycated pentapeptide of a hemoglobin β-chain without substantially cleaving a glycated amino acid or glycated peptide from N-terminal-glycated pentapeptide of a hemoglobin α-chain. Each 10 μl of a sample for screening was placed in 3 wells of a 96-well plate, respectively. Then, the first well was supplemented with 50 μl of an α-solution, the second well was supplemented with 50 μl of a β-solution, and the third well was supplemented with 50 μl of a control solution. After the plate was incubated at 37° C. for 60 minutes, 50 μl of pH-regulating solution and 50 μl of a developing solution were added, and the whole was left at room temperature for 30 minutes. Then, the absorbance at a measuring wavelength of 550 nm and a reference wavelength of 595 nm were determined using a Microplate Reader (model 550, manufactured by Bio-Rad), to select a sample having a difference in the absorbance between the β-solution-supplemented well and the control solution-supplemented well larger than a difference in the absorbance between the α-solution-supplemented well and the control solution-supplemented well. Thus the protease of object was screened. The samples to be used include: carboxypeptidase B (manufactured by Sigma-Aldrich Corp.); carboxypeptidase W (manufactured by Wako Pure Chemical Industries, Ltd.); carboxypeptidase Y (manufactured by Oriental Yeast Co., Ltd.); protease (type XXVII nagase: manufactured by Sigma-Aldrich Corp.); protease (type VIII Subtilisin Carlsberg: manufactured by Sigma-Aldrich Corp.); protease (type XXIV Bacterial: manufactured by Sigma-Aldrich Corp.); Proteinase K (manufactured by Wako Pure Chemical Industries, Ltd.); neutral proteinase (manufactured by Toyobo Co., Ltd.); and distilled water. To confirm a degree of color development caused by a developing solution, 10 μl of 1 mM FVH (manufactured by Peptide Institute Inc.) and 1 mM FVL (manufactured by Peptide Institute Inc.) were placed in a well severally, followed by adding 50 μl of the control solution. The whole was incubated at 37° C. for 60 minutes. Then, 50 μl of a pH-regulating solution and 50 μl of the developing solution were added and the whole was left at room temperature for 30 minutes, followed by the determination in a similar manner as described above.
(§2) 50 mM Acetate-sodium acetate (pH3.5)
(§3) 0.2 mM α-Glycated pentapeptide (manufactured by Peptide Institute Inc.)
(§4) 0.09% 4-aminoantipyrine (manufactured by Wako Pure Chemical Industries, Ltd.)
(§5) 0.06% TODB (manufactured by Dojindo Laboratories)
(§6) 15 U/ml Peroxidase (manufactured by Sigma-Aldrich Corp.)

Experiment [2] in a line: Screening of protease for hemoglobin A1c determination (pH 7.5). The note with it: pH 7.5, 37° C. 60 minutes; 550 nm, reference 595 nm; FOD923 developing solution. The procedure:
as §1, with “μl of distilled water and 50” for “μl of pH-regulating solution and 50”, “Co., Ltd.); carboxypeptidase A (manufactured by Wako Pure Chemical Industries, Ltd.); thermolysin (manufactured by Wako Pure Chemical Industries, Ltd.); and distilled” for “Co., Ltd.); and distilled”, “μl of distilled water and 50” for “μl of a pH-regulating solution and 50”
as §3
(§7) 0.09% 4-Aminoantipyrine (manufactured by Wako Pure Chemical Industries, Ltd.)
as §5, §6
(§8) Various bacteria were cultured with shaking in Difco Lactobacilli MRS Broth (manufactured by Becton, Dickinson and Company), a MM medium (2.5% mannose, 2.5% beer yeast extract, pH7.0), and a YPG medium (2% glucose, 1% polypeptone, 2% yeast extract, 0.1% potassium dihydrogen phosphate, 0.05% magnesium sulfate heptahydrate, pH 7.0) at a temperature of from 28 to 30° C. for 1 to 7 days. Then, cells were removed by centrifugation from the culture solutions to obtain culture supernatants. A sample was prepared by diluting the obtained culture supernatants 10-fold with a 10 mM potassium phosphate buffer (pH7.5), and the determination was performed in a similar manner as Example 1.

Test in experiment [3]: as above
As to conditions: for β-Solution (absorbance, RAW DATA): pH 7.5, 37° C. 60 minutes, 550 nm, reference 595 nm, FOD923 developing solution; for specificity for β-chain over α-chain N-terminal glycated pentapeptide: pH 7.5. The protocol: as §1, with “μl of distilled water and 50” for “μl of pH-regulating solution and 50”, “Co., Ltd.); carboxypeptidase A (manufactured by Wako Pure Chemical Industries, Ltd.); thermolysin (manufactured by Wako Pure Chemical Industries, Ltd.); and distilled” for “Co., Ltd.); and distilled”, “μl of distilled water and 50” for “μl of a pH-regulating solution and 50”
(§9) 0.2 mM β-Glycated pentapeptide (manufactured by Peptide Institute Inc.)
as §7, §5, §6, §8

Experiment [4] is described as follows: Screening of protease (pH 3.5), control solution without substrate. The note with it: pH 3.5, no substrate; 550 nm, reference 595 nm. The procedure:
as §1, §2, §4, §5, §6

Experiment [5] can be described thus: Screening of protease for hemoglobin A1c determination (pH 3.5). The note with it: for β-Solution (absorbance, RAW DATA): pH 3.5, 37° C. 60 minutes, 550 nm, reference 595 nm, FOD923 developing solution. The procedure: as §1, §2, §9, §4, §5, §6
Experiment [6] in a line: Screening of protease (pH 7.5), control solution without substrate. The note with it: pH 7.5, no substrate; 550 nm, reference 595 nm. The procedure:
as §1, with “μl of distilled water and 50” for “μl of pH-regulating solution and 50”, “Co., Ltd.); carboxypeptidase A (manufactured by Wako Pure Chemical Industries, Ltd.); thermolysin (manufactured by Wako Pure Chemical Industries, Ltd.); and distilled” for “Co., Ltd.); and distilled”, “μl of distilled water and 50” for “μl of a pH-regulating solution and 50”
as §7, §5, §6, §8

B1: proteinase K: Proteinase K (manufactured by Wako Pure Chemical Industries, Ltd.) (protein, UniProt P06873 106-384, looked up)
Proteinase K: AAQTNAPWGLARISSTSPGTSTYYYDESAGQGSCVYVIDTGIEASHPEFEGRAQMVKTYYYSSRDGNGHGTHCAGTVGSRTYGVAKKTQLFGVKVLDDNGSGQYSTIIAGMDFVASDKNNRNCPKGVVASLSLGGGYSSSVNSAAARLQSSGVMVAVAAGNNNADARNYSPASEPSVCTVGASDRYDRRSSFSNYGSVLDIFGPGTSILSTWIGGSTRSISGTSMATPHVAGLAAYLMTLGKTTAASACRYIADTANKGDLSNIPFGTVNLLAYNNYQA
B1: the “α-Solution (absorbance, RAW DATA)” value was 0.024 in experiment [1] and 0.031 in experiment [2]. Further, the entries for the “β-Solution (absorbance, RAW DATA)” value in experiment [3] and in experiment [5] were 0.077 and 0.026, respectively. The “control solution (absorbance, RAW DATA)” value in experiment [4] is listed as 0.023; in experiment [6] it was 0.017.

B2: protease type VIII: protease (type VIII Subtilisin Carlsberg: manufactured by Sigma-Aldrich Corp.) (protein, UniProt P00780 106-379, looked up)
Subtilisin Carlsberg: AQTVPYGIPLIKADKVQAQGFKGANVKVAVLDTGIQASHPDLNVVGGASFVAGEAYNTDGNGHGTHVAGTVAALDNTTGVLGVAPSVSLYAVKVLNSSGSGSYSGIVSGIEWATTNGMDVINMSLGGASGSTAMKQAVDNAYAKGVVVVAAAGNSGSSGNTNTIGYPAKYDSVIAVGAVDSNSNRASFSSVGAELEVMAPGAGVYSTYPTNTYATLNGTSMASPHVAGAAALILSKHPNLSASQVRNRLSSTATYLGSSFYYGKGLINVEAAAQ
B2: the “α-Solution (absorbance, RAW DATA)” value in experiment [1] is 0.019; in experiment [2] it was 0.023. The “β-Solution (absorbance, RAW DATA)” value in experiment [3] is 0.020; in experiment [5], 0.018. For the same molecule, the results for the “control solution (absorbance, RAW DATA)” value in experiment [4] and in experiment [6] were 0.016 and 0.012, respectively.

B3: thermolysin: thermolysin (manufactured by Wako Pure Chemical Industries, Ltd.) (protein, UniProt P00800 233-548, looked up)
Thermolysin: ITGTSTVGVGRGVLGDQKNINTTYSTYYYLQDNTRGNGIFTYDAKYRTTLPGSLWADADNQFFASYDAPAVDAHYYAGVTYDYYKNVHNRLSYDGNNAAIRSSVHYSQGYNNAFWNGSQMVYGDGDGQTFIPLSGGIDVVAHELTHAVTDYTAGLIYQNESGAINEAISDIFGTLVEFYANKNPDWEIGEDVYTPGISGDSLRSMSDPAKYGDPDHYSKRYTGTQDNGGVHINSGIINKAAYLISQGGTHYGVSVVGIGRDKLGKIFYRALTQYLTPTSNFSQLRAAAVQSATDLYGSTSQEVASVKQAFDAVGVK
For the molecule B3, in experiment [2], the “α-Solution (absorbance, RAW DATA)” value was found to be 0.053. Besides, in experiment [3], the “specificity for β-chain over α-chain N-terminal glycated pentapeptide” value is reported as “cleave a glycated peptide from an N-terminal glycated pentapeptide of a hemoglobin β-chain without substantially cleaving” and the “β-Solution (absorbance, RAW DATA)” value was 0.249. Besides, the “control solution (absorbance, RAW DATA)” value in experiment [6] is 0.055.

B4: carboxypeptidase B: carboxypeptidase B (manufactured by Sigma-Aldrich Corp.) (protein, UniProt P09955 111-416, looked up)
Carboxypeptidase B: TTGHSYEKYNNWETIEAWTKQVTSENPDLISRTAIGTTFLGNNIYLLKVGKPGPNKPAIFMDCGFHAREWISHAFCQWFVREAVLTYGYESHMTEFLNKLDFYVLPVLNIDGYIYTWTKNRMWRKTRSTNAGTTCIGTDPNRNFDAGWCTTGASTDPCDETYCGSAAESEKETKALADFIRNNLSSIKAYLTIHSYSQMILYPYSYDYKLPENNAELNNLAKAAVKELATLYGTKYTYGPGATTIYPAAGGSDDWAYDQGIKYSFTFELRDKGRYGFILPESQIQATCEETMLAIKYVTNYVLGHL
As to B4, the “α-Solution (absorbance, RAW DATA)” value in experiment [1] is on record as 0.063; in experiment [2], 0.036. The “specificity for β-chain over α-chain N-terminal glycated pentapeptide” value in experiment [3] is reported as “cleave a glycated peptide from an N-terminal glycated pentapeptide of a hemoglobin β-chain without substantially cleaving”; in experiment [5] (pH 3.5), “cleaves a glycated peptide from an N-terminal glycated pentapeptide of a hemoglobin β-chain without substantially cleaving”. Further, the figures for the “β-Solution (absorbance, RAW DATA)” value in experiment [3] and in experiment [5] were 0.127 and 0.147, respectively. Further, the “control solution (absorbance, RAW DATA)” value in experiment [4] came out at 0.060; in experiment [6], 0.028.

B5: carboxypeptidase A: carboxypeptidase A (manufactured by Wako Pure Chemical Industries, Ltd.) (protein, UniProt P00730 111-419, looked up)
Carboxypeptidase A1: ARSTNTFNYATYHTLDEIYDFMDLLVAEHPQLVSKLQIGRSYEGRPIYVLKFSTGGSNRPAIWIDLGIHSREWITQATGVWFAKKFTEDYGQDPSFTAILDSMDIFLEIVTNPDGFAFTHSQNRLWRKTRSVTSSSLCVGVDANRNWDAGFGKAGASSSPCSETYHGKYANSEVEVKSIVDFVKDHGNFKAFLSIHSYSQLLLYPYGYTTQSIPDKTELNQVAKSAVEALKSLYGTSYKYGSIITTIYQASGGSIDWSYNQGIKYSFTFELRDTGRYGFLLPASQIIPTAQETWLGVLTIMEHTLNNLY
Regarding B5, the “α-Solution (absorbance, RAW DATA)” value in experiment [2] was determined as 0.022. For the same molecule, the “β-Solution (absorbance, RAW DATA)” value in experiment [3] came to 0.145. For the same molecule, in experiment [6], the “control solution (absorbance, RAW DATA)” value turned out to be 0.018.
